Patent US20090117153A1
Read-outs that look alike come from different tables or passages of the source.

Experiments:
[1] = target: OVA.β2m.Kb SCT Y84A (mouse) (UniProt P01887)
[2] = target: OVA.β2m.Kb SCT Y84A (mouse) (UniProt P01887); remark: listed apart in the source
[3] = target: OVAp5Y.β2m.Kb Y84A SCT (mouse) (UniProt P01887)
[4] = target: native K^b on cells, loaded with endogenous peptides (mouse) (UniProt P01887); assay: cell-based or functional assay

IC50 [1] | IC50 [2] | IC50 [3] | Substance | VSV8 concentration that activates the N15 hybridoma; LM1.8 cells (FIG. 11C) [4]
1.25 µM | 125 µM | 40 µM | SIYR peptide | 
 |  |  | VSV8 peptide | 1 nM
